The target in this assay is T1, DNAJB6b wt (human, UniProt O75190-2 1-241).
T1 construct: DNAJB6b, human, the 241-residue b isoform of DNAJB6; No tags; also called wt DNAJB6b; unlabelled DNAJB6b
As to the kind of experiment: native gel or EMSA; agarose gel imaged on an IR fluorescence scanner; 5 nM DNAJB6b-CCys-IR680 mixed with unlabelled DNAJB6b-wt to total concentrations of 5 nM to 32 µM. The note with it: both partners purified.

T1 sequence (O75190 other isoform, or with tags, fused parts or gaps): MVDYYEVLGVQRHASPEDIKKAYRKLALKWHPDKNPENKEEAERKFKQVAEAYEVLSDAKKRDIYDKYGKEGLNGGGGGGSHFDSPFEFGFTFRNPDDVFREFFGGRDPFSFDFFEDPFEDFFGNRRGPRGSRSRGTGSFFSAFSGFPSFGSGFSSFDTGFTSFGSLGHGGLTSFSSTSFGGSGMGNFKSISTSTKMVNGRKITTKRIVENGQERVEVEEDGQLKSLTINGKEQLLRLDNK

B1: DNAJB6b-CCys-IR680 (natural protein)
chain: not shown
modifications: IRdye-680 (maleimide dye) on the engineered C-terminal cysteine
notes: DNAJB6b, human, the 241-residue b isoform of DNAJB6, no tags; a cysteine residue added at the C-terminus (variant CCys); also called IR680-labelled DBAJB6b; DNAJB6-CCys labelled with IRdye680; source: E. coli BL21 DE3 pLysS star, purified as wt with 1 mM DTT in all buffers; labelled with IRdye680 maleimide, free dye removed by SEC
B1: the binding result is on record as “binds”.

(Values after publication PMC8781954, “High-Efficiency Expression and Purification of DNAJB6b Based on the pH-Modulation of Solubility and Denaturant-Modulation of Size” (Molecules, 2022).)
